From publication doi:10.1101/2020.11.11.367672 (bioRxiv, 2020)

Experiments:
Assay in all cases: pull-down
[1] = molecular target: RPAP3 TPR1 domain (residues 133-255) (human, UniProt Q9H6T3 133-255)
Dicer 256-595 domain = molecular target: T1, Dicer 256-595 domain (human, UniProt Q9UPY3 256-595)
T1 sequence: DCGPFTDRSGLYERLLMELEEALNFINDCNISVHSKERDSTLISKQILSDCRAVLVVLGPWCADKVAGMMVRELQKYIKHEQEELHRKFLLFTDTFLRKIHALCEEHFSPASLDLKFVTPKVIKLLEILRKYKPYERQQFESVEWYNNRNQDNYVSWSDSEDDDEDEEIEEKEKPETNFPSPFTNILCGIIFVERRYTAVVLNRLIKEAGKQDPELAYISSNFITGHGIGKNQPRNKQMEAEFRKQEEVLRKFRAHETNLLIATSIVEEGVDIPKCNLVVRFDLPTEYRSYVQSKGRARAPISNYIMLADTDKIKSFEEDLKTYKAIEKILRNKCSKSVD

[2] = molecular target: GST (glutathione-S-transferase)-tagged RPAP3 (human, UniProt Q9H6T3 1-665)
Sequence of GST (glutathione-S-transferase)-tagged RPAP3 (Q9H6T3 whole entry): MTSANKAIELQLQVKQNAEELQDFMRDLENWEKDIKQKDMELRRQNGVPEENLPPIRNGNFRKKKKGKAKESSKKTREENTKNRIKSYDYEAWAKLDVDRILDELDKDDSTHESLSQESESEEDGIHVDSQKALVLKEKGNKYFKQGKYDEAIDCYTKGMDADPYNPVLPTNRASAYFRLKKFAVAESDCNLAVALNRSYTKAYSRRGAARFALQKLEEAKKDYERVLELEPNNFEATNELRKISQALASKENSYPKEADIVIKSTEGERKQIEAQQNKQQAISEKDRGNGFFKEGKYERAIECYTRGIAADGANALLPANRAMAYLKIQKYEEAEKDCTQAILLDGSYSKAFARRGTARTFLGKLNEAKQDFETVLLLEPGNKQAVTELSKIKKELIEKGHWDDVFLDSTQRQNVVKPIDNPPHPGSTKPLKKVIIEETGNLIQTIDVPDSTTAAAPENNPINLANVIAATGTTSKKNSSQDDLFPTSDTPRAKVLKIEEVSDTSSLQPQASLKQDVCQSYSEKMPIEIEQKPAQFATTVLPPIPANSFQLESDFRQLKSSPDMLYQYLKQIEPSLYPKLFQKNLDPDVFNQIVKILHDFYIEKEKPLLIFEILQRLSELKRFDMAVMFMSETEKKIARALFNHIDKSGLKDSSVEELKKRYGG

Sequence of RPAP3 TPR1 domain (residues 133-255) (Q9H6T3 133-255): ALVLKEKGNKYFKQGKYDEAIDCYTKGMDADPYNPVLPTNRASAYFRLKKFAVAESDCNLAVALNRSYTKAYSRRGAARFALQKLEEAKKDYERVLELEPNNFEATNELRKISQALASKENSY

B1: His6-tagged TRBP dsRBD3 (262-366) (domain or fragment)
chain: GCTWDSLRNSVGEKILSLRSCSLGSLGALGPACCRVLSELSEEQAFHVSYLDIEELSLSGLCQCLVELSTQPATVCHGSATTREAARGEAARRALQYLKIMAGSK
B1: binds [1]; binds (Dicer 256-595 domain).

B2: His6-tagged TRBP protein (purified recombinant, GST pull-down) (natural protein)
chain: MSEEEQGSGTTTGCGLPSIEQMLAANPGKTPISLLQEYGTRIGKTPVYDLLKAEGQAHQPNFTFRVTVGDTSCTGQGPSKKAAKHKAAEVALKHLKGGSMLEPALEDSSSFSPLDSSLPEDIPVFTAAAAATPVPSVVLTRSPPMELQPPVSPQQSECNPVGALQELVVQKGWRLPEYTVTQESGPAHRKEFTMTCRVERFIEIGSGTSKKLAKRNAAAKMLLRVHTVPLDARDGNEVEPDDDHFSIGVGSRLDGLRNRGPGCTWDSLRNSVGEKILSLRSCSLGSLGALGPACCRVLSELSEEQAFHVSYLDIEELSLSGLCQCLVELSTQPATVCHGSATTREAARGEAARRALQYLKIMAGSK
B2: binds [2].
